Laboratory results reported in article PMC2873105 (Virology, 2010).

Biological target: the molecule itself
Assay: native gel or EMSA

B1: MBP-Rep78 (adeno-associated virus type 2 Rep78 fused to MBP) (enzyme)
chain: MPGFYEIVIKVPSDLDGHLPGISDSFVNWVAEKEWELPPDSDMDLNLIEQAPLTVAEKLQRDFLTEWRRVSKAPEALFFVQFEKGESYFHMHVLVETTGVKSMVLGRFLSQIREKLIQRIYRGIEPTLPNWFAVTKTRNGAGGGNKVVDECYIPNYLLPKTQPELQWAWTNMEQYLSACLNLTERKRLVAQHLTHVSQTQEQNKENQNPNSDAPVIRSKTSARYMELVGWLVDKGITSEKQWIQEDQASYISFNAASNSRSQIKAALDNAGKIMSLTKTAPDYLVGQQPVEDISSNRIYKILELNGYDPQYAASVFLGWATKKFGKRNTIWLFGPATTGKTNIAEAIAHTVPFYGCVNWTNENFPFNDCVDKMVIWWEEGKMTAKVVESAKAILGGSKVRVDQKCKSSAQIDPTPVIVTSNTNMCAVIDGNSTTFEHQQPLQDRMFKFELTRRLDHDFGKVTKQEVKDFFRWAKDHVVEVEHEFYVKKGGAKKRPAPSDADISEPKRVRESVAQPSTSDAEASINYADRYQNKCSRHVGMNLMLFPCRQCERMNQNSNICFTHGQKDCLECFPVSESQPVSVVKKAYQKLCYIHHIMGKVPDACTACDLVNVDLDDCIFEQ
binding result: binds
